The target of the assay is Ld class I MHC molecule of the mouse, properly folded form detected by mAb 30-5-7 (mouse). In words: radioligand binding + co-IP.
Sequence of Ld class I MHC molecule of the mouse, properly folded form detected by mAb 30-5-7 (mouse) (P01897 25-362): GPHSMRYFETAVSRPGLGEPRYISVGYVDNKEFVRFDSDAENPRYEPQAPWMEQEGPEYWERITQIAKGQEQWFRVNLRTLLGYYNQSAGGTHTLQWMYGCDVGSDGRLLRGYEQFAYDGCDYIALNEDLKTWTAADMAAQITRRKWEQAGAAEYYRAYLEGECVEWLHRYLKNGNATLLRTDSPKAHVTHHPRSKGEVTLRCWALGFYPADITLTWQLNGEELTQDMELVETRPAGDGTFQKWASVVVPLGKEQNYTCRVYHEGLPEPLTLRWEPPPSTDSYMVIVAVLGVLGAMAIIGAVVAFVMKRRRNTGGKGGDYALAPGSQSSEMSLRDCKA

For the substance murine CMV peptide (pp89, 168-176), the percent of the FCS control (cells in serum-free medium during the 4 h assay) worked out at 85% and the percent of the surface plus lysate peptide binding accounted for by surface Ld worked out at 80%.
